Laboratory results from publication PMC3159454 (Nucleic Acids Research, 2011).

Biological target: the molecule itself
Assay: SEC

B1: Elk-1 (recombinant, full length) (natural protein, UniProt P19419 1-428, looked up)
chain: MDPSVTLWQFLLQLLREQGNGHIISWTSRDGGEFKLVDAEEVARLWGLRKNKTNMNYDKLSRALRYYYDKNIIRKVSGQKFVYKFVSYPEVAGCSTEDCPPQPEVSVTSTMPNVAPAAIHAAPGDTVSGKPGTPKGAGMAGPGGLARSSRNEYMRSGLYSTFTIQSLQPQPPPHPRPAVVLPSAAPAGAAAPPSGSRSTSPSPLEACLEAEEAGLPLQVILTPPEAPNLKSEELNVEPGLGRALPPEVKVEGPKEELEVAGERGFVPETTKAEPEVPPQEGVPARLPAVVMDTAGQAGGHAASSPEISQPQKGRKPRDLELPLSPSLLGGPGPERTPGSGSGSGLQAPGPALTPSLLPTHTLTPVLLTPSSLPPSIHFWSTLSPIAPRSPAKLSFQFPSSGSAQVHIPSISVDGLSTPVVLSPGPQKP
With B1 the “stoichiometry N” value was 2.
